Data taken from publication doi:10.1101/2020.10.16.20213991 (medRxiv, 2020).

Molecular target: the molecule itself
Assay: SEC

B1: cowpea chlorotic mottle virus (CCMV) coat protein (natural protein)
chain: MSTVGTGKLTRAQRRAAARKNKRNTRVVQPVIVEPIASGQGKAIKAWTGYSVSKWTASCAAAEAKVTSAITISLPNELSSERNKQLKVGRVLLWLGLLPSVSGTVKSCVTETQTTAAASFQVALAVADNSKDVVAAMYPEAFKGITLEQLTADLTIYLYSSAALTEGDVIVHLEVEHVRPTFDDSFTPVY
B1: binds.
